125 sequences from the supplement of paper PMC9112550, “Optimization of the antimicrobial peptide Bac7 by deep mutational scanning” (BMC Biology, 2022) can be followed below.
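Further: peptides expressed intracellularly from a pBAD plasmid library in pooled LB shake-flask culture, induced with 0.3% L-arabinose, DNA abundance read by NGS, three biological replicates, DESeq2 with apeglm shrinkage.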

This data set deals with Escherichia coli TOP10. Nature of the data set: shrunken log2 fold change of peptide-encoding DNA abundance (4.5 h post-induction vs induction); higher = less antimicrobial activity (less host growth inhibition). The note with it: time post-induction: 4.5 h; library: site-saturation at positions 5, 18, 19, 20.
As for RRIRNRPPRLPRPRPRPFAQPRP, the “shrunken log2 fold change” value was -0.321.
The figure for RRIRKRPPRLPRPRPRPPNNPRP is 0.364; for RRIRDRPPRLPRPRPRPTVVPRP it is 0.149; for RRIRLRPPRLPRPRPRPPWNPRP it is 0.939.
The figure for RRIRVRPPRLPRPRPRPSKKPRP is -0.0165; for RRIRERPPRLPRPRPRPMPDPRP it is 0.17; for RRIRSRPPRLPRPRPRPAPEPRP it is 0.479.
On to RRIRDRPPRLPRPRPRPYPWPRP, for which the “shrunken log2 fold change” value was -0.136.
Regarding RRIRWRPPRLPRPRPRPIAAPRP, the “shrunken log2 fold change” value came to 0.976.
The figure for RRIRKRPPRLPRPRPRPFTRPRP is 0.0464.
The figure for RRIRVRPPRLPRPRPRPMTLPRP is -0.0218; for RRIRLRPPRLPRPRPRPYTGPRP it is -0.125.
The figure for RRIRARPPRLPRPRPRPVFKPRP is 0.115; for RRIRVRPPRLPRPRPRPWIDPRP it is -0.134; for RRIRSRPPRLPRPRPRPGHVPRP it is 0.1.
For the sequence RRIRTRPPRLPRPRPRPTTTPRP, the “shrunken log2 fold change” value is 0.168.
With RRIRWRPPRLPRPRPRPERYPRP, the “shrunken log2 fold change” value is 0.142.
The figure for RRIRTRPPRLPRPRPRPSDFPRP is -0.704.
For the sequence RRIRARPPRLPRPRPRPRRIPRP, the “shrunken log2 fold change” value was -0.0273.
The figure for RRIRVRPPRLPRPRPRPLRTPRP is 0.246; for RRIRWRPPRLPRPRPRPWHMPRP it is 0.219.
Regarding RRIRDRPPRLPRPRPRPPCNPRP, the “shrunken log2 fold change” value was -0.424.
As for RRIRWRPPRLPRPRPRPHAEPRP, the “shrunken log2 fold change” value came out at 0.0375.
On to RRIRCRPPRLPRPRPRPAYKPRP, for which the “shrunken log2 fold change” value is -0.093.
The figure for RRIRDRPPRLPRPRPRPLMFPRP is -0.188; for RRIRERPPRLPRPRPRPNNPPRP it is -0.736; for RRIRDRPPRLPRPRPRPADAPRP it is 0.196.
Take RRIRRRPPRLPRPRPRPHGLPRP: the “shrunken log2 fold change” value amounted to 0.217.
The figure for RRIRDRPPRLPRPRPRPEHHPRP is 0.155; for RRIRIRPPRLPRPRPRPFKNPRP it is -0.188; for RRIRSRPPRLPRPRPRPQYLPRP it is -0.683.
The figure for RRIRMRPPRLPRPRPRPWTIPRP is -0.0577.
As for RRIRQRPPRLPRPRPRPMGSPRP, the “shrunken log2 fold change” value is -0.0869.
The figure for RRIRWRPPRLPRPRPRPMHMPRP is -0.287; for RRIRPRPPRLPRPRPRPHERPRP it is 0.198.
Regarding RRIRHRPPRLPRPRPRPFGPPRP, the “shrunken log2 fold change” value is -0.247.
The figure for RRIRERPPRLPRPRPRPFKHPRP is -0.255.
The figure for RRIRSRPPRLPRPRPRPNATPRP is 0.551; for RRIRTRPPRLPRPRPRPHMRPRP it is 0.161; for RRIRTRPPRLPRPRPRPPTMPRP it is -0.0279.
As to RRIRERPPRLPRPRPRPCQFPRP, the “shrunken log2 fold change” value was -0.131.
The figure for RRIRYRPPRLPRPRPRPKHEPRP is -0.0393.
On to RRIRLRPPRLPRPRPRPDSIPRP, for which the “shrunken log2 fold change” value was -0.0883.
Regarding RRIRPRPPRLPRPRPRPEITPRP, the “shrunken log2 fold change” value was 0.175.
Consider RRIRLRPPRLPRPRPRPKLLPRP, for which the “shrunken log2 fold change” value was -0.331.
Regarding RRIRCRPPRLPRPRPRPPNKPRP, the “shrunken log2 fold change” value is -0.0142.
The figure for RRIRTRPPRLPRPRPRPKQQPRP is -0.0149; for RRIRTRPPRLPRPRPRPYESPRP it is -0.00247; for RRIRDRPPRLPRPRPRPTDVPRP it is -0.0358.
The figure for RRIRDRPPRLPRPRPRPSKLPRP is -0.317; for RRIRNRPPRLPRPRPRPAGQPRP it is 0.0891.
The figure for RRIRDRPPRLPRPRPRPLSHPRP is -0.0109; for RRIRRRPPRLPRPRPRPTVDPRP it is 0.615; for RRIRLRPPRLPRPRPRPAEVPRP it is -0.193.
RRIRCRPPRLPRPRPRPFLFPRP: the “shrunken log2 fold change” value is -0.291.
The figure for RRIRRRPPRLPRPRPRPNDVPRP is -0.0736; for RRIRCRPPRLPRPRPRPVVNPRP it is -0.18.
Regarding RRIRKRPPRLPRPRPRPCRDPRP, the “shrunken log2 fold change” value was -0.136.
The figure for RRIRSRPPRLPRPRPRPYKKPRP is -0.0605.
For RRIRARPPRLPRPRPRPHGHPRP, the “shrunken log2 fold change” value was 0.125.
Regarding RRIRGRPPRLPRPRPRPQKKPRP, the “shrunken log2 fold change” value was found to be 0.0788.
The figure for RRIRCRPPRLPRPRPRPMMAPRP is 0.184; for RRIRMRPPRLPRPRPRPEPRPRP it is 1.5.
The figure for RRIRHRPPRLPRPRPRPFYRPRP is -0.0975.
The figure for RRIRYRPPRLPRPRPRPTMHPRP is -0.484.
With RRIRWRPPRLPRPRPRPKCAPRP, the “shrunken log2 fold change” value came to 0.706.
Turning to RRIRPRPPRLPRPRPRPTLRPRP, the “shrunken log2 fold change” value stood at 0.449.
As to RRIRHRPPRLPRPRPRPEFRPRP, the “shrunken log2 fold change” value came out at 0.00953.
For the sequence RRIRWRPPRLPRPRPRPPGHPRP, the “shrunken log2 fold change” value was found to be 0.403.
The figure for RRIRNRPPRLPRPRPRPMICPRP is 0.0101; for RRIRRRPPRLPRPRPRPGNDPRP it is -0.0382; for RRIRHRPPRLPRPRPRPLWMPRP it is -0.138.
The figure for RRIRKRPPRLPRPRPRPEIRPRP is 0.171.
For the sequence RRIRVRPPRLPRPRPRPLWPPRP, the “shrunken log2 fold change” value is 0.176.
The figure for RRIRVRPPRLPRPRPRPWLKPRP is 0.151; for RRIRDRPPRLPRPRPRPQMWPRP it is -0.23.
The figure for RRIRSRPPRLPRPRPRPQIEPRP is 0.0319.
For the sequence RRIRMRPPRLPRPRPRPKQGPRP, the “shrunken log2 fold change” value is -0.000896.
For the sequence RRIRIRPPRLPRPRPRPFNYPRP, the “shrunken log2 fold change” value was -0.149.
The figure for RRIRLRPPRLPRPRPRPAGWPRP is 0.712.
For RRIRFRPPRLPRPRPRPDELPRP, the “shrunken log2 fold change” value is 0.0112.
The figure for RRIRTRPPRLPRPRPRPHAVPRP is 0.0205; for RRIRFRPPRLPRPRPRPADDPRP it is -0.053.
On to RRIRARPPRLPRPRPRPCRDPRP, for which the “shrunken log2 fold change” value is -0.0411.
The figure for RRIRPRPPRLPRPRPRPMHGPRP is 0.0373; for RRIRQRPPRLPRPRPRPAGIPRP it is 0.0977; for RRIRARPPRLPRPRPRPKWWPRP it is 0.149.
RRIRLRPPRLPRPRPRPCRWPRP: the “shrunken log2 fold change” value was found to be 0.252.
The figure for RRIRGRPPRLPRPRPRPHTAPRP is 0.149; for RRIRSRPPRLPRPRPRPWRTPRP it is 0.311; for RRIRPRPPRLPRPRPRPAHNPRP it is -0.114.
Regarding RRIRIRPPRLPRPRPRPCQEPRP, the “shrunken log2 fold change” value was -0.119.
The figure for RRIRSRPPRLPRPRPRPGEKPRP is -0.000687; for RRIRGRPPRLPRPRPRPPLWPRP it is 1.09; for RRIRIRPPRLPRPRPRPYSWPRP it is -0.264.
The figure for RRIRRRPPRLPRPRPRPSYMPRP is -0.257; for RRIRMRPPRLPRPRPRPKYNPRP it is -0.446; for RRIRMRPPRLPRPRPRPQSGPRP it is -0.0103.
For RRIRRRPPRLPRPRPRPTQTPRP, the “shrunken log2 fold change” value came to 0.338.
The figure for RRIRSRPPRLPRPRPRPVFKPRP is -0.29; for RRIRNRPPRLPRPRPRPGPWPRP it is 0.0802; for RRIRYRPPRLPRPRPRPHLWPRP it is -0.255.
As to RRIRKRPPRLPRPRPRPLQFPRP, the “shrunken log2 fold change” value was -0.076.
The figure for RRIRIRPPRLPRPRPRPRYTPRP is -0.156; for RRIRFRPPRLPRPRPRPKYQPRP it is -0.534.
As for RRIRARPPRLPRPRPRPADGPRP, the “shrunken log2 fold change” value was 0.258.
The figure for RRIRQRPPRLPRPRPRPFTVPRP is -0.0315.
The figure for RRIRIRPPRLPRPRPRPDQRPRP is 0.0228; for RRIRFRPPRLPRPRPRPGHYPRP it is -0.205.
Take RRIRVRPPRLPRPRPRPTQLPRP: the “shrunken log2 fold change” value is 0.504.
As for RRIRNRPPRLPRPRPRPRMQPRP, the “shrunken log2 fold change” value is -0.0634.
Regarding RRIRARPPRLPRPRPRPKNEPRP, the “shrunken log2 fold change” value turned out to be 0.215.
The figure for RRIRVRPPRLPRPRPRPEDRPRP is 0.0837.
Turning to RRIRRRPPRLPRPRPRPTFQPRP, the “shrunken log2 fold change” value was 0.204.
The figure for RRIRNRPPRLPRPRPRPQWSPRP is 0.129; for RRIRHRPPRLPRPRPRPPWQPRP it is -0.0158; for RRIRKRPPRLPRPRPRPNCNPRP it is 0.00173.
The figure for RRIRNRPPRLPRPRPRPLDKPRP is -0.186.
The figure for RRIRWRPPRLPRPRPRPRRVPRP is 0.122.
Regarding RRIRRRPPRLPRPRPRPEYRPRP, the “shrunken log2 fold change” value was -0.0195.
For RRIRIRPPRLPRPRPRPGVWPRP, the “shrunken log2 fold change” value amounted to 0.191.
The figure for RRIRFRPPRLPRPRPRPTEYPRP is -0.423.
With RRIRMRPPRLPRPRPRPYNVPRP, the “shrunken log2 fold change” value was -0.3.
Take RRIRIRPPRLPRPRPRPSRLPRP: the “shrunken log2 fold change” value was -0.0995.
Regarding RRIRVRPPRLPRPRPRPNTRPRP, the “shrunken log2 fold change” value worked out at 0.02.
